Values quoted from earlier work in article PMC4451881.

Target: CK2beta (Homo sapiens) (UniProt P67870)
Sequence (P67870 2-215): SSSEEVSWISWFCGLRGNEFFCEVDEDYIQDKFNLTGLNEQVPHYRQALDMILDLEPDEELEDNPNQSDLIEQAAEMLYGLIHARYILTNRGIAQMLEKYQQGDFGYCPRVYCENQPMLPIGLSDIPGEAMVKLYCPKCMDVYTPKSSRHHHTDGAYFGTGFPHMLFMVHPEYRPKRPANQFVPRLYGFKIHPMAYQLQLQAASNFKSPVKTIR

Sequence of CK2alpha (P68400 whole entry): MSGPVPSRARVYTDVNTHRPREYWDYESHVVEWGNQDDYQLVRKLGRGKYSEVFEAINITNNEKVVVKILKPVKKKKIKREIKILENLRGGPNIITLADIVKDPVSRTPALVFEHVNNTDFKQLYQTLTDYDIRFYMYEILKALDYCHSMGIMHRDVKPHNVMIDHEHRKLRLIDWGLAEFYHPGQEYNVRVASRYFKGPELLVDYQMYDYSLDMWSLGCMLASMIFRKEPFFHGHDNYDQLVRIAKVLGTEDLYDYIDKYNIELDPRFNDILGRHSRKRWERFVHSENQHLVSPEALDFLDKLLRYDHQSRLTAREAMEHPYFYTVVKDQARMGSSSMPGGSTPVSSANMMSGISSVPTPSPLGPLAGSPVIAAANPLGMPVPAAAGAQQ

Substance: CK2alpha (from UniProt P68400)
- Kd: 4 nM
